# From paper PMC5560242
# Read-outs that look alike come from different tables or passages of the source.
# T1: MBNL1-zf12 (Homo sapiens, UniProt Q9NR56 1-92)
# T1 sequence: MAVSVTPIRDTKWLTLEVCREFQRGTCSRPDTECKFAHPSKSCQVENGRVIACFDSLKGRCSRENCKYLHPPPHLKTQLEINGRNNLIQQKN
# Assays:
# MBNL1-zf12 [1] = target: T1, MBNL1-zf12; assay: BLI
# MBNL1-zf12 [2] = target: T1, MBNL1-zf12; assay: BLI; remark: listed apart in the source
# MBNL1-zf12 [3] = target: T1, MBNL1-zf12; assay: NMR HSQC titration
binder,measurement,setting,value
GUCUCGCUGUUCCCC (ssRNA) [hcTnT15m (U103G)],Kd,MBNL1-zf12 [1],500 nM
GUCUCGCUUUUCCCC (ssRNA) [hcTnT15],Kd,MBNL1-zf12 [2],130 nM
CUCGCUUUUCCCC (ssRNA) [hcTnT13],binding result,MBNL1-zf12 [3],binds
